In the nanobody polyreactivity screen of Harvey et al. (2022):

Experiment: yeast display, Sf9 membrane polyspecificity reagent, FACS + sequencing; frameworks hold sequencing errors
Summary of the method: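 Nanobodies from a synthetic yeast display library (Saccharomyces cerevisiae BJ5465), induced 36–48 hours with galactose, were stained 1 hour at 4 °C with 10% biotinylated, detergent-solubilized Sf9 membrane reagent, enriched on streptavidin microbeads, then FACS-sorted. Anti-HA (expression) and streptavidin (reagent binding) fluorescence set low and high (top ~1%) gates. Polyreactivity labels come from the gate of origin. Genes were colony-PCR amplified, MiSeq 2 × 250 sequenced and filtered by CDR length.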

Sequence | polyreactivity (PSR sort gate)
QVQLVESGGGLVQAGGSLRLSCASSGRTFVNNAMGWSRQAPGKERELVAAISQSGSRTYYADSVKGRFTISRDNAKNTVYLQMNSLKPEDTAVYYCAARGARYSTSDYWGQGTQVTVSS | high polyreactivity
QVQLVESGGGLVQAGGSLRLSCAACGSILKQYAMGWYRQAPGKERVLDAAITWRGTGTYYADSVKGRFTISRDNAKKTVYLLMNSLQAEDTAVSYCAAKWYRRTYGYLPYTGIVNYDYWGQGTQLTVSS | high polyreactivity
QVQLQESGGGLVQAGGSLRLSCAASGTILYSLGMGWYRQAPGKRREFVASITWGTTTNYAESVKGRFTISRDNAKNTVYPQMNSLKPDVTAVYDCAAPPFGDSSYHYWGQGTQVTVSS | low polyreactivity
QVQLVESGGGLVQAGGSLRLSCAASGSIFSANAMGWYRQAPGKERELVASITGDGSTNYADSVNGRFTISRDNAKNTVYLQMNSLKPEDTAVYYCAVDRGRRGMDYWGQGTQVTVSS | low polyreactivity
QVQLVESGGGLVQAGGSLRLSCAASGRNLQNYAMGWYRQPPGKERELVAAISFSGGRTNYADSVKGRFTISRDNAKNTVYLQMKSLNPEDTAVYYCAKVYRRSGSVSRYDYWGQGTQVTVSS | high polyreactivity
QFQLGESGGGLVQAGGSLRLSCAASGSTFSGYTKGWYRQARGKEREFVAAISSRGGSTYYADSVKGRFTISRDNAKNTVYLQMYRLNPEDTAVYYCAAKVCARVDGRQFRMEYWGQGTQVTVSS | high polyreactivity
QVQLVESGGGLVQAGGSLSLSCAASGYTFPYYTMGWYRQAPGKERELVATITRRGDSTYYADSVKGRFTISRDNAKNTVYLQMNSLKPEDTAVYYCNTASYGRHQFRKSSKMDYWGQGTQVTVSS | high polyreactivity
QVQLVESGGGLVQAGGSLRLSCAASGFNFYGYVMGWYRQAPGKERELVAVISRSGDRTSYADSVKGRFTISRDTAKNTVYLQMNSLKPEDTAVYYCAAESGWGAAGEELDYWGQGTQVTVSS | high polyreactivity
QVQLVESGGGLVQAGGSLRLSCAASGRIFTTYAMGWYRQAPGKEMELVAAIDYSDGSTYYADSVKGRFTISRDNAKNTVYLQMNSLNPEDTAVYYCAADGTYVWGSEEGNYWGQGTQVTVSS | low polyreactivity
QVQLVESGGGLVQAGGSLRLSCAASGSTFYPYAMGWYRQAPGKEREFVARISVSAGRTYYADSVKGRFTISRDNAKNTVYLQMNSLKPEDTAVYYCAKGIPTFYGSPRYDYWGQGTQVTVSS | low polyreactivity
QVQLVESGGGLVQAGGSLRLSCAASGSTFKTYAMGWYRQAPGKESELVAAISWSGGSTYYADSVKGRFTISRDNAKNTVYLQMNSLKPEDTAVYYCNAGWGYPSPWFIGEYWGQGTQVTVSS | low polyreactivity
QVQLVESGGGLVQAGGSLRLSCAASGSTFVVNAMGWYRQAPGKERELVAAIDGSDGSTYYADSVKGRFTISRDNAKNTVYLQMNSLKPEDTAVYYCAAEVLGRPDVENDYWGQGTQVTVSS | low polyreactivity
QVQLVESGGGLVQAGGSLRLSCAASGFIIKWYAMGWYRQAPGKERELLAAISIDGGSTYYADSVKGRFTISRDNAKNTVYLQMNSLLPEDTAVYYCNAGYNGTQYLTRDYGLGMDYWGLGTQVTVSS | low polyreactivity
QVQLVESGGGLVQAGGSLRLSCAASGSTFVFYAMGWYRQAPGKERELVADITSGGRTSYADSVKGRFTISRDNAKNTVYLQLNSLKPEDTAVYYSAALTRWYAWYDYWGQGTQVTVSS | high polyreactivity
QVQLVESGGGLVLAGGSLRLSCAASGRTFKENAKGWYRQAPGKARELVAVINSGGRTYYAVSVKGSFTISRDNAKNTVYLQMNSLKPEDSAVYYCAAYSRSKESGYWGQGTQVTVSS | high polyreactivity
QVHLVDSGGGLVQAGGRLRLSCPASVSTFYYYVKGWYRQPPGKERELVAAISSGCHTNYADSVKGRFTISRDNAKNTVYLQMNSLIPEDSAVYYCAAKPRRGTLLRYGYWGQGTQVTVSS | high polyreactivity

Sequence | polyreactivity (PSR sort gate)
QVQLVESGGGLVQAGGSLRLSCAASGSIFYGNAMGWYRQAPGKERELVAAISESGGSTYYADSVKGRFTISRDNAKNTVYFQMNSLKPEDTAVYYCNSEAWGYYWWWGYDYWGHGTQVTVSS | low polyreactivity
QVQLVESGGGLVQAGGSLRLSCAASGFIFYEYDMGWYRQAPGKERELVAAISVSGGSTYYADSVKGRFTISRDNAKNTVYLQRNSLKPEDTAVYYCAVFLPDYGRYDYWGQGTQVTVSS | low polyreactivity
QVQLVESGGGLVQAGGSLRLSCAPSGGTFVTYAMGWYIQAPGKERELVAAITTGGSTYYADSVKGRFTISRDNAKNTVYLQMNSLKPEDTAVYYCAAVYTGSGKRYYKGYYWGQGTQVTVSS | low polyreactivity
QVQLVESGGGLVQAGGSLRLSCAASGFIFVRNTMGWYRQAPGKERELVASISRRGRTTYYADSVKGRFTISRDNAKNTVSLQMNSLKPEDTAVYYCNARYRVPKQGDYWGQGTQVTVSS | high polyreactivity
QVQLVESGGCLVQAGGSLRLSCAASGSIFRYYAKGWYRQAPGKERELVAAIRVSTGSTSYADSVKGRFTISRDTAKNTVYLQMNSLKPEDTAFYYCNARSRQVIAYRQHNYWGQGTQVTVSS | high polyreactivity
QVQLVESGGGLVQAGGSLRLSCAASGRIFWGYAMGWSRQAPGKERELVAGITYSGGSTYYADSVKGRFTISRDNAKNTVYLQMNSLKPEDTAVYYCAAAKSYRSGSWYEYWGQGTEVTVSS | high polyreactivity
QVQIVESVGGLLQAGGSLRLSCAASGRIFQGYAMGWYRQAPGKERELVASISSCGRTYYADSVKGRFTISRDNAKNTVYLQFNSLTPEDTAVYYCAKRPQFFWSNPYDYWGLGTQVTVSS | high polyreactivity
QVQLVESGGGLVQAGGSLRLSCAASGRNFIDYMGWYRQAPGKERELVAAIDSGASTYYADSVKGRFTISRDNAKNTVYLQMNSLNPEDTAVYYCAADVVYDYGGMDYWGQGTLVTVSS | low polyreactivity
QVQLVESGGGLVQAGGSLRLSCAASGITFVYYAMGWYRQAPGKERELVAAISKNGGSTYYADSVKGRFTISRDNAKNTVYLQMNSLKPEDTAVYYCAAEEGYRWVRYNYWGQGTQVTVSS | high polyreactivity
QVQLVESGGGLVQAGGSLRLSCAASGIIFRYNAMGLYRQAPGKERELVAAISWSGGYTYYADYVKGRFTISRDNAKNTVYFQMNSLKPEDTAVYYFNAVSLSRWGGYWGQGTQVTVSS | high polyreactivity
QVQLVESGGGLVQAGGSLRLSCAASGSIFSYYAMGWYRQAPGKERELVAAITVRGGSTYYADSVKGRFTISRDNAKNTVYLQMNSLKPEDTAVYYCAADWLDESFSYGPYYYWGQGTQVTVSS | low polyreactivity
QVQLGESGGGLVQAGGRLRLRCAASGIIFTKYAMGLYRQAPGKERELVAAITASGGSTYYADSVKGRFTISRDTAKNTVYLQMNSLKPEDTAVYYCAARSPSRYGYWGQGTQVTVSS | high polyreactivity
QGQLVESGGGLVQAGGSLRLSCAASGRTFKVYAMGWYRQAPGKERELVAAISFSGGSTYYADSVKGRFTISRDNAKNTVYLQMNSLKPEDTAVYYCATTYPGAIRDYWGQGTQVTVSS | high polyreactivity
QVHLVESGGGLVQAGGSLRLSFAASGRTFRGNDMGWYRQAPGKERELVATITRNGGSTRYADSVKGRFTISRDNAKNNVYLQMNSLKPEDSAVYYCNARSRYFGYDYWGQGTQVTVSS | high polyreactivity
QVQLVESGGGLVQAGGSLRLSCAASGSTFSNNAMGWYRQAPGKERELVASTNYADSVKGRFTISRDNEKNTVYLQMNSLKPEDTAVYYCAAGAYPSWGLDFWGQGTQVTVSS | low polyreactivity
QVQLVESGGGLVQAGGSLRLSCAASGFTFDGYAMGWYRQAPGKERELVAAISDSGDSTYYADSVKGRFTISRDNAKNTVYLQMNSLKPEDTAVYYCAAGLGYYWSDYFAYDYWGQGTQVTVSS | low polyreactivity
